Test results taken from paper PMC9621426, “Characterization of a novel pyruvate kinase from Trichinella spiralis and its participation in sugar metabolism, larval molting and development” (PLOS Neglected Tropical Diseases, 2022).

Experiments:
purified protein [1] = substrate: C=C(OP(=O)(O)O)C(=O)O; assay: purified protein; assay type: biochemical, Trichinella spiralis; details: co-substrate ADP, Tris-HCl pH 8.0, 37°C
purified protein [2] = substrate: Nc1ncnc2c1ncn2[C@@H]1O[C@H](COP(=O)(O)OP(=O)(O)O)[C@@H](O)[C@H]1O; assay: purified protein; assay type: biochemical, Trichinella spiralis; details: co-substrate PEP, Tris-HCl pH 8.0, 37°C

B1: rTsPKM (recombinant T. spiralis pyruvate kinase M) (Trichinella spiralis) (protein)
chain: MSEKQSQKSRKLAKVAAIPAKTTLEHLCRLDTDHSVEKLVSKTGLICTIGPASCSVETLTKMIQAGMTIARLNFSHGSHDYHAQTVANIRKAVDSLAASGNGKVVAIALDTKGPEIRTGYLAVGSNEEVVVEANSAVRVTVDSGMKFRCTESLIYVDYENMPKVVSKGSKIYIDDGLISLLVNEVADNHLDCVVEHGGKLGSCKGVNLPDCEVDLPAVSEKDAQDLQFAVKHQCDMVFASFVRSAEAVRQIRQTLGVEGRGIKIVAKIENRQGIANVDSIIEEADGVMIARGDLGIEIPAEQVFVAQKAIIAKCRLAGKPAICATQMLESMVDKARPTRAEITDVANAVLDGADCVMLSGETAKGRHPVQAVRTMHQICCQAESVFFQKHFFDELQAMLPRPMNAMDTIAFAVTTAAANCNASAIILLTNTGASAVALSKCRPSSMIISVVKKEQTARYLRLYSGILPCVYDSKNSSSSSPNAVVDWVTSVDQRINYAILFGKKERIIHDGDNVIVVNGWREGPGHTNTIRIFAVEPLIPRP
Question: With B1 as the protein, how does the Km (purified protein [1]) read?
Answer: 1.51 mM

Question: What about the Km (purified protein [2]) of the same protein?
Answer: 3.33 mM
